Values joined by “and” are separate entries in the source; they are usually repeats but may differ in a detail not shown here. Identical values can stand only once.
B1: WRN fragment WRN(1151-1432) (domain or fragment, human, UniProt Q14191 1151-1432, looked up)
chain: ETQIVLYGKLVEARQKHANKMDVPPAILATNKILVDMAKMRPTTVENVKRIDGVSEGKAAMLAPLLEVIKHFCQTNSVQTDLFSSTKPQEEQKTSLVAKNKICTLSQSMAITYSLFQEKKMPLKSIAESRILPLMTIGMHLSQAVKAGCPLDLERAGLTPEVQKIIADVIRNPPVNSDMSKISLIRMLVPENIDTYLIHMAIEILKHGPDSGLQPSCDVNKRRCFPGSEEICSSSKRSKEEVGINTETSSAERKRRLPVWFAKGSDTSKKLMDKTKRGGLFS
B2: WRN C-terminal fragment WRN(1072-1432) (domain or fragment, human, UniProt Q14191 1072-1432, looked up)
chain: KKLLLPSSKTVSSGTKEHCYNQVPVELSTEKKSNLEKLYSYKPCDKISSGSNISKKSIMVQSPEKAYSSSQPVISAQEQETQIVLYGKLVEARQKHANKMDVPPAILATNKILVDMAKMRPTTVENVKRIDGVSEGKAAMLAPLLEVIKHFCQTNSVQTDLFSSTKPQEEQKTSLVAKNKICTLSQSMAITYSLFQEKKMPLKSIAESRILPLMTIGMHLSQAVKAGCPLDLERAGLTPEVQKIIADVIRNPPVNSDMSKISLIRMLVPENIDTYLIHMAIEILKHGPDSGLQPSCDVNKRRCFPGSEEICSSSKRSKEEVGINTETSSAERKRRLPVWFAKGSDTSKKLMDKTKRGGLFS

Molecular target: the molecule itself
Assay: SEC

Row | Protein | stoichiometry N
1 | B1 | 3
2 | B2 | 6 and 3
